Source: paper doi:10.1101/2022.01.10.475532

Key:
[1] = biological target: prefusion-stabilized S protein of SARS-CoV-2 Delta (B.1.617.2) variant (S trimer) (SARS-CoV-2); test: BLI
[2] = biological target: prefusion-stabilized S protein of SARS-CoV-2 G614 variant (S trimer) (SARS-CoV-2); test: BLI

Sequence of human ACE2 peptidase domain (PD) (Q9BYF1 18-615): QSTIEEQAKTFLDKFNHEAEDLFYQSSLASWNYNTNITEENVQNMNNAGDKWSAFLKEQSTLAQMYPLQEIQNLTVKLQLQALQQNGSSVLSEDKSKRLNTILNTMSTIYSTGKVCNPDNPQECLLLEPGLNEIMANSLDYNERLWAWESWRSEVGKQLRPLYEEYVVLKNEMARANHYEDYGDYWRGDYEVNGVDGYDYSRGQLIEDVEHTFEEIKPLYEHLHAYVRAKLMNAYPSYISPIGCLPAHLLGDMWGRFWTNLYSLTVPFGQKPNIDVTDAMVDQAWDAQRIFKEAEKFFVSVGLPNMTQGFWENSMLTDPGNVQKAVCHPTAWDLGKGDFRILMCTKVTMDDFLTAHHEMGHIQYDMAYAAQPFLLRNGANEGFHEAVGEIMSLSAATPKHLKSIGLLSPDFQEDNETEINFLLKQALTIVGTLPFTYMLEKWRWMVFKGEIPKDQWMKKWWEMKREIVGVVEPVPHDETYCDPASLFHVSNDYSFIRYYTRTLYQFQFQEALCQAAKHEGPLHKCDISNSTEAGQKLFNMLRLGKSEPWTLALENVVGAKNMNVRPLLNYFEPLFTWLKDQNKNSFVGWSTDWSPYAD

“human ACE2 peptidase domain (PD) (from UniProt Q9BYF1 18-615) (domain or fragment)” was tested, and the Kd [1] was 88 nM and the Kd [2] was 237 nM.
